From doi:10.1101/2024.05.27.596032 (bioRxiv, 2024) come the findings set out here.

Values joined by “and” are separate entries in the source; they are usually repeats but may differ in a detail not shown here. Equal values may be shown once. Read-outs that look alike come from different tables or passages of the source.

What all share (experiment): SEC
On the technique in general: SEC sorts molecules by how far they enter the pores of the column.

Series [1] concerns the target Listeria monocytogenes NrdR (Listeria monocytogenes serotype 1/2a str, S10403S) (UniProt B8DHI6).
For series [2] the target is unchanged. The source holds these as a separate data set.
Series [3] has the same target. This is another data set of the same source.
For series [4] the target is unchanged. The source holds these as a separate data set.
For series [5] the target is unchanged. The source holds these as a separate data set.
The target is the same in series [6]. This is another data set of the same source.
Series [7] deals with the molecule itself.

Take “Listeria monocytogenes NrdR (from UniProt B8DHI6 1-154) (natural protein)”: the stoichiometry N (commonly a count of units in the complex or per binding partner) in series [1] was 4; in series [2] it was 4; in series [3], 2; in series [4], 4; in series [5] it was 8; in series [6] it was 4.

B1: Streptococcus pneumoniae NrdR (natural protein, Streptococcus pneumoniae TIGR4, UniProt P67318 1-157, looked up)
chain: MRCPKCGATKSSVIDSRQAEEGNTIRRRRECDECQHRFTTYERVEERTLVVVKKDGTREQFSRDKIFNGIIRSAQKRPVSSDEINMVVNRIEQKLRGRNENEIQSEDIGSLVMEELAELDEITYVRFASVYRSFKDVSELESLLQQITQSSKKKKER
For B1, in series [7], the “stoichiometry N” value was 2 and 4.
